From patent publication US20220098319A1 (SHANGHAI PHARMAEXPLORER, published 2022)
Numbering of substitutions follows the chain as printed.

T1: cynomolgus monkey CD73 (on transfected CHOK1 cells) (cynomolgus monkey, UniProt A0A2K5V5U7 27-549)
T1 construct: whole, on cells; also called CHOK1-cCD73; CHOK1-CCD73
T1 sequence: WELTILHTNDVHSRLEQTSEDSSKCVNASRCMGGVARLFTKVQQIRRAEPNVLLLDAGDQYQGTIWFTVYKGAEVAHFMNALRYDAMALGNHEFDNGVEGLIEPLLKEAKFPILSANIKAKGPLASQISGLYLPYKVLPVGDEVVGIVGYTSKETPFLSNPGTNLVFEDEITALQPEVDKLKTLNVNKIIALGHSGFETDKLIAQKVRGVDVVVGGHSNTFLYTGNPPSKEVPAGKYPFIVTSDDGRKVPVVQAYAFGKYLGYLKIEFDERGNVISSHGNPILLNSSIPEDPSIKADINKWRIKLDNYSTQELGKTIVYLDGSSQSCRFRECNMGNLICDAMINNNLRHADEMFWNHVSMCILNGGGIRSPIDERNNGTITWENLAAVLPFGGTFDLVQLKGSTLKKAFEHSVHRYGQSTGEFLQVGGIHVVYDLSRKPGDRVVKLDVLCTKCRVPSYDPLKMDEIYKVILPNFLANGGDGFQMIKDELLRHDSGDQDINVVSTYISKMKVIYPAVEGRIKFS

T2: human CD73 (full length, on transfected CHOK1 cells) (human, UniProt P21589 27-549)
T2 sequence (looked up): T1 sequence with T199M, A350T, I466V

T3: murine CD73 (on transfected CHOK1 cells) (mouse, UniProt Q61503 29-551)
T3 construct: whole, on cells; also called CHOK1-mCD73; mCD73
T3 sequence (looked up): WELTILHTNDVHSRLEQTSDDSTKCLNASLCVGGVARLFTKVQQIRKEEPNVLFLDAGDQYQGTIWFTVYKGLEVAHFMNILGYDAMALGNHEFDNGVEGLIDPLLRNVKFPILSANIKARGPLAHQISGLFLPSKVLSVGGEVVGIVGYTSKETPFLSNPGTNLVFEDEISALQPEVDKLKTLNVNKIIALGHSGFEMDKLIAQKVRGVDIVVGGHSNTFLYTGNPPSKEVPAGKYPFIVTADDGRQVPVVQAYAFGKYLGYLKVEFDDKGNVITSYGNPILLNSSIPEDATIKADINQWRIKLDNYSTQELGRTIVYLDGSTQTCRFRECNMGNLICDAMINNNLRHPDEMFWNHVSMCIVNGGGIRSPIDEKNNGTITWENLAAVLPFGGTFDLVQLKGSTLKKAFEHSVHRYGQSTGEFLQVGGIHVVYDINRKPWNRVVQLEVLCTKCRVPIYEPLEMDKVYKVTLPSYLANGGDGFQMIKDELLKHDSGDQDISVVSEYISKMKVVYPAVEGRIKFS

B1: mAb036 (clone 66H6C12), murine anti-CD73 antibody (antibody, V domains shown)
VH: QVQLQQSGAEVVKPGASVKISCKASGYVFSSYWINWVKQRPGKGLEWIGKIFPGNGDTDYNGNFKGKATLTADKSSSTAYMQLSSLTSEDSAVYFCAGFADWGQGTLVTVSA
VL: DIQMTQSPSSLSASLGERVSLTCRASQDIGERLIWLQQEPDGTFKRLIYATSSLDSGVPKRFSGSSSGSDYSLTISRLESEDFVDYYCLQYASSPYTFGGGTKLEIK
notes: Purified from hybridoma supernatant
B2: mAb038 (clone 69C9E12), murine anti-CD73 antibody (antibody, V domains shown)
VH: QVQLQQPGTELVNPGASVKLSCKASGYTFTSYWMHWVKQRPGQGLEWIGNINPSNGGTHYNEKFNNKATLTVDKSSSTAYMQLSSLTSEDSAVFYCARGDYAYDWYFTVWGTGTTVTVSS
VL: DIVLTQSPASLAVSLGQRAIISCKASQSVSFAGTGLMHWYQQKPGQQPKLLIYRVSNLEAGIPTRFSGSGSRTDFTLNIHPVEEDDAATYYCQQNREFPWTFGGGTKLEIK
notes: as for B1
B3: mAb041 (clone 71E10B3), murine anti-CD73 antibody (antibody, V domains shown)
VH: QVQLQQPGTELVKPGASVKLSCKASGYTFTSYWMHWVKQRPGQGLEWIGNINPSNGGTNYNQKFKSKATLTVDKSSNTASMQLSSLTSEDSAVYYCARGDYGYDWYLDVWGTGTTVTVSS
VL: B2 VL with T34P, G35S, V55T, I62V, R72G
notes: as for B1
B4: mAb020 (clone 24D6B4), murine anti-CD73 antibody (antibody, V domains shown)
VH: EVQLQQSGPELVKPGASVKIPCKASGYTFTDYNMDWVKQRHGKSLEWIGDINPNNGGTVYNQKFKGKATLTVDKSSNTAYMELRSLTSEDTAVYYCARISGTGYWYFDVWGTGTTVTVSS
VL: DIQMTQSPASLSVSVGETVTITCRASENIYSNLAWYQQKQGKSPQLLVYGATNLADGVPSRFSGSDSGTQYSLKINSLQSEDFGSYYCQHFWGTPWTFGGGTKLEIK
notes: as for B1
B5: mAb034 (clone 60G1C8), murine anti-CD73 antibody (antibody, V domains shown)
VH: DVQLQESGPGLVKPSQSLSLTCSVTGYSITSRYYWNWIRQFPGNKLEWMGYMTYDGTNNYNPSLTNRISITRDTSKNQFFLKLNSVTAEDTATYFCARGGWDPFDYWGQGTTLTVSS
VL: DIQMTQSPAALSASVGETVTITCRASDNIYSYLAWYQQKQGKCPQLLVKNAKTLAEGVPSRFSGSGSGTQFSLRINSLQPDDFGTYYCQHYYGTPLTFGAGTKLELK
notes: as for B1
B6: mAb042 (clone 77B9A3), murine anti-CD73 antibody (antibody, V domains shown)
VH: QVQLQQSGAGLVKPGASVKLSCKASGYTFTNYWMHWVKQRPGQGLEWIGMIHPNSGSTNNNEKFKNKATLTVDKSSNTAYMQLSSLTSEDSAVYYCARFFFGGYPHYYALDYWGQGTSVTVSS
VL: DIVMTQSQKFMSTTVGDRVSITCKASQNVGTAVAWYQQKPGQSPKLLIYSASDRYTGVPDRLTGSGSGTDFTLTISNVQSEDLADYFCQQYSSFPLFTFGSGTKLVIQ
notes: as for B1

These binders were tested against T1, cynomolgus monkey CD73 (on transfected …) (assay: FACS on CHOK1-cCD73 cells).

| Binder | EC50 [nM] | MAX MFI [MFI] |
| --- | --- | --- |
| B1 | 0.9 | 7490 |
| B2 | 0.3 | 7400 |
| B3 | 1.9 | 9570 |
| B4 | 3.4 | 9960 |
| B5 | 0.2 | 3210 |
| B6 | 3.9 | 8770 |

These binders were tested against T2, human CD73 (full length, on transfected …) (assay: cell-based or functional assay).

| Binder | Enzyme activity blocking assay, IC50 [nM] | Enzyme activity blocking assay, MAX % inhibition [%] |
| --- | --- | --- |
| B1 | 0.2 | 72.3 |
| B2 | 1 | 53.3 |
| B3 | 4 | 35.7 |
| B4 | 0.1 | 63 |
| B5 | 0.1 | 73.7 |
| B6 | 0.1 | 47.9 |

These binders were tested against T2, human CD73 (full length, on transfected …) (assay: FACS on CHOK1-hCD73 cells).
Protocol: The titration binding curve was produced by the following method:
The CHOK1 stable cell line transfected with human CD73 was expanded to a 75-90% confluence in a T-75 cell culture flask. The medium was aspirated, washed 1-2 times with PBS, and then treated with trypsin (Tryple express: Life technology) and cells were collected. The cells were washed with PBS buffer for 1-2 times. After counted, the cells were diluted with PBS to 1-2×10⁶ cells per ml, added with 1% fetal bovine serum (FBS) blocking solution, incubated on ice for 20-30 minutes, and then washed twice with HBSS by centrifugation. The collected cells were suspended with FACS buffer (PBS+2% FBS) to 2×10⁶ cells/ml, added to a 96-well FACS reaction plate at 100 microliters per well, and centrifuged at 300 g for 5 minutes to discard the supernatant. Anti-CD73 antibody was prepared with blocking solution to an initial concentration of 10 ug/ml and serially diluted at 8 points. 100 microliter per well of that antibody sample to be tested were added and incubated at 4° C. for 1-2 hours. […] The plate was washed 2-3 times with FACS buffer by centrifugation, added with 100 μl fixative solution (4% Paraformaldehyde) per well to suspend the cells. 5-10 minutes later, it was washed 1-2 times with FACS buffer by centrifugation. The cells were suspended with 100 microliters of FACS buffer, FACS (FACSCalibur, BD) was used for detection and the results were analyzed, as shown in FIG. 1 and Table 4.

| Binder | EC50 [nM] | MAX MFI [MFI] |
| --- | --- | --- |
| B1 | 0.3 | 5290 |
| B2 | 0.4 | 5230 |
| B3 | 2.9 | 8160 |
| B4 | 1.8 | 7540 |
| B5 | > 10 | 5820 |
| B6 | > 10 | 13900 |

Each binder was assayed against T3, murine CD73 (on transfected CHOK1 cells) (assay: FACS on CHOK1-mCD73 cells).

| Binder | binding result |
| --- | --- |
| B1 | no binding (tested: 10 ug/ml initial concentration) |
| B2 | no binding (tested: 10 ug/ml initial concentration) |
| B3 | no binding (tested: 10 ug/ml initial concentration) |
| B4 | no binding (tested: 10 ug/ml initial concentration) |
| B5 | no binding (tested: 10 ug/ml initial concentration) |
| B6 | no binding (tested: 10 ug/ml initial concentration) |
